# Data: the DeepSol protein solubility set
# Experiment: soluble on expression in E. coli; label from the status in PepcDB or PDB records
row,Sequence,soluble on expression in E. coli
1,MKRKTKIVSTIGPASESVDKLVQLMEAGMNVARLNFSHGDHEEHGRRIANIREAAKRTGRTVAILLDTKGPEIRTHNMENGAIELKEGSKLVISMSEVLGTPEKISVTYPSLIDDVSVGAKILLDDGLISLEVNAVDKQAGEIVTTVLNGGVLKNKKGVNVPGVKVNLPGITEKDRADILFGIRQGIDFIAASFVRRASDVLEIRELLEAHDALHIQIIAKIENEEGVANIDEILEAADGLMVARGDLGVEIPAEEVPLIQKLLIKKSNMLGKPVITATQMLDSMQRNPRPTRAEASDVANAIFDGTDAVMLSGETAAGQYPVEAVKTMHQIALRTEQALEHRDILSQRTKESQTTITDAIGQSVAHTALNLDVAAIVTPTVSGKTPQMVAKYRPKAPIIAVTSNEAVSRRLALVWGVYTKEAPHVNTTDEMLDVAVDAAVRSGLVKHGDLVVITAGVPVGETGSTNLMKVHVISDLLAKGQGIGRKSAFGKAVVAKTAEEARQKMVDGGILVTVSTDADMMPAIEKAAAIITEEGGLTSHAAVVGLSLGIPVIVGVENATTLFKDGQEITVDGGFGAVYRGHASVL,soluble
2,MGSDKIHHHHHHMKFFNREKEIEEILHIIESEPQRINFIFGSINSGKTALINEIINNRLNKDKYVVFYFDLREIFISKYDDFIEVLFEEYEEPFIDKVKRLFLSLIKDYPDVIKSYALLNITGVVDSIPIPKNTLNELLKKRNVKNVFRYITSVLIKIKREGKQPIIIIDELQKIGDLKLNGFLIYELFNYFVSLTKHKHLCHVFCLSSDSLFIERVYNEAMLEGRCKYILVDDFDRETALKFMDFLAKENNINLTNEDKELIYNYVGGKPIDIIYVINEMKYKKLEDILTSMLKEETQKLKYFLENVKEEDEELYKKVVDALKIFKDSYEIEDIKIPKKLREFLVKKNILFLNPIEGTLKPQSFLVWNAIKRIL,not soluble
3,MNFHFTLDNDRKRRRSLSIDIDINFNDKAPGTSSDNEQRAPKRRADEEAVNAVPKNLLTTSSTFARAVIPAAPAISSANNKMAPQSVTATAKTTTNRGKVSGEGEYQLIKNEVLCSPYGNQYEVLEFLGKGTFGQVVKAWKKGTSEIVAIKILKKHPSYARQGQIEVSILSRLSNENSEEFNFVRAFECFNHKSHTCLVFEMLEQNLYDFLKQNKFMPLPLNAIRPILFQVLTALLKLKSLGLIHADLKPENIMLVDPQQQPYRVKVIDFGSASHRSKAVTNTYLQSRYYRAPEIILGLPFNESIDMWSLGCVIAELFLGWPLYPGSSEYDQIRFIIQTQGLPPTSMLESASKLHRFFKEVKSESPNHTNVGGSYYRLKTVEEYEASSSTAKSKETRKYIFNVIDDISRVCYGFESDPVEHLCDRIDRQEFVDVLKKMLVLNPDFRITPAEGLESKFVTMTHINGYNFANYVHEAHKRMEICRKPGPAMATPYRAANVATPITPVEKPPAPKLQQPMIAVLPQLNQIAATNIPPVPTQPDLTNLMHHYSQMAAATGSAATAAQFFYQPLPPAPLFQYAQLHHPFAARPPHFLSLATPSHMVPQFVPVPIMDPSMLQGQWPPGAAQQFAVLANDIMRVPAPQGINQMFASTPQTFSLPQFLSSSIPSATTAFNGNAPNIPFPEENSSWALGTAAQQQQQQAQRAQSMINGNVKVKPLAAQPKKNSPAPSVITLSSDEDSNGAGSSNSGSTTRTGAVNPVRNDTLPMGNTIKTEDILVPPTTFDGQLPNLQYFPGSHLFDPKTVAGLLPNPFLDTSHIPRAFN,not soluble
4,MGSDKIHHHHHHMSHTLYEASVIRVQRCELAVPGSNPGMFEKALKSGVDFVFLDLEDAVAPDDKLTARKNVIEALNDLDWRGHGVTVSVRINGLDTQFMVRDVVDVVEKAGHKLDTILIPKVGVYSDVYMVEAMLNQLEMQQGLKNRIGIEALIETALGMANVEDIARHGVRGRLEALHFGVADYAASNRARTTNIGGLNPDYPGDQWHAAISRMTVACRAYGLRPIDGPFGDIQDPEGYKAAARRAAALGCEGKWAIHPSQIDLANEVFTPPPSEVEKAQRILAALQEAAAQGKGAAALDGRLIDAASARMANNVVKMAEAIGATAT,not soluble
5,MGSDKIHHHHHHMKSIPSLDDLDLFARIAQAGGLAVVARQSGVSVPTLSRRMRALELQIGVHLFERGSHGYRVTALGRAFLSETRAFQAEAQRLRRMVATPLMAEVRITAGSWTSAFLAQQLPRFWQEDAQWRPAFLEADTRLDIARRGADIGIRNQRPEQAWLAGRYTGLITYAVYAISDQVRGYVVLPENQAKTPSARWVWSHHGGEVAATARSPRMVADLACAGVGQVVLPRFAAAMFPALQQVGPEIAELSHEEWLVCHHDGRHDPPVRAALEGIAAVLTDTTLRPIGA,not soluble
6,MKEYLKEVLDVSGEKFFILNPMIPNMDSNKPNFIIGKKSLIYTGKFAKDWNSDEILEAFAKIVRTNPDFRLIVAGDKFNLHPENPNFKEEVTQKLKTYKNVDWVGGVTREEVQKLIQQSDIGIGWRNNSLNDSLELSTKALEYGALGKPVILNRTPMHERLFGSEYPFYANSEEEFISCITQSLTNDDIYASAAETVYKVCTDFTFAKTYERISPFLWEAKDKRIRLVFAGHDLKFAKMFIDRFASRTRYEVEIDQWKGHSVNDESHSTNCLNWADVIFCEWGLGNAVWYSHRVRQGQTLIVRMHLQERETKHYLKFNYDAIDSIIAISPYIRDEFVNNCGIPSDNMVMIYNAVNCKKFDLEKYEDTQFNLGITGICPSRKRLDRAIDIFEKLKEKDSRYTLHIKGQLPTHYPWLWKKEEEKKYYEQVFKRINSSKWRDSIIFDGFGNDMDTWFQKIGYILSTSDFESFHLAPAEGMASGAFPIIIRWEGCHTIYDEDFIFENVDEAATFILKRNQVMGPNDIDVRTYVRNRFDIEKIFGDWEELIARLR,not soluble
7,MAELEKTFALIKPDAVRAGKAQEIMQLIELNGFTIIAKQKLQLTRARAEEFYGEHKGKEFFPKLVNFMTSGPIWALVLAKPGAILAWRALMGPTNVFKARAEQPKCLRALYGTDGTQNATHGSDSPISAAREIKFFFPTLSGDPTIYAEPTAAAEYITKRIQPALAKALAALAREKPSADKFEAITFVAGYLLQNNPNKPKVLMPDEWDPALMGDDEDDEADFINARLAAPTGNDGATKAEFDAMVEAAKADTGGAAPAQEFVYPDSKPTTPVVPAPPAPGSKPPSASGARPQSARPTSARPPSASAAPPAPLAPVPPPASSSRPASGSGRPPSATARPPSATPPPPPPAVELEEADDPAQLDEAATKVQAAFRGYQARKEVAVMRSEAQPGEAAAEPEQEAELQPEAEPEPQPEGEQEPQPQASASSSFLPDGVTEEMAAEAATRVQAHMRGHLARKQVAAIKAQQAAPAVAESSEALAEPEPQPEAEAEPQPQASVSSSFLPDGVTEEMAAEAATLVQAHMRGHLARKQVAAIKAQQAAPAVAESSEAQAEAEQTEAEAEPQPDAEAEAGAAEGEAEPEPEAAE,not soluble
8,MAHHHHHHMRSPASEGDCGVRLRVSWREGKQRALTDELDAKHQSDPYETLQTSDRKVFVSNTAAGAGRLLTDPQVHADDKGFSTYLRERLLVRVLPEGQKCVCGADASNEHVHTCTRLQQNPRTTRHEMISMTFANGLRLCGFQCGMEPRLTEASRRRPDILIVGLDTYAITDVTVTYAGRVTAYVSEESMEEADPLRAARDRLTQKRQKYRHWALANGLDFEPFVMLTNGAIHPAIRRWLRRILGARVLAYAGAQWVAERQ,soluble
9,MSLTSTLLRGRTLSFVRWPETIDDHSAWRYEEDGGLLISDGRIIASGAYHDVEKQAGEGAKKIDHRPHLLLPGFIDTHVHFPQMQVIASYGAELLDWLNTYTFPEETKFANAQHGRRIARLFLDEMVRHGTTTVAAYCSVHKASAEAFFAESHDRNMLNIAGKVMMDRNAPDGVLDTPQSGYDDTKALIKEWHGKGRQHYAITPRFAITSSPEQMEMAGALCREHPGLHMQTHLSENHAEIAFTQQLYPRSRDYTDVYEHYGLLGKNSLFGHCIHLSEREADALSQSGSVAVFCPTSNLFLGSGLFDYQRFRRRDKPLRIAAATDVGGGTNYSMLRTMDEGYKVIALNGEKLNPFQSFWQITRGNAEALSVADKIGTLDQGTDADIVVLDARATPAMRLRMETAQTLAQELFLLQTLGDDRAVREVYVAGRAAKSDMANEGHHHHHH,soluble
10,MGSDKIHHHHHHMAKRKKDTMEFRFYELPQGESALVLCGESWKRVYGHDELHLHFHNLLEIGICREGDGNMYLDEDIYQYHDGDITFIPENFPHVTVSYGEVVNFWEYIFIDLRSVIEEMFPNNAAFQNDAVSTISKKAFMTNVYQSPVVAGYINSIIRETNEHKEYSQRTIKLLVQGIVIELLRKYDELPEEDNDVVKGTNMSQIATALDYMNKHYSETIKAGELSSLCNMSETHFRRLFESYINMPPMEYLNLIRVQKACELMKKTNEPMELIAQKCGFTTQSTFNRNFRKFLNTSPYQWKINPENYEHKLLNFRISALKGW,not soluble
11,GPLGSKVDLFDFELPERLIAQVPLEQRDASRLMVLDKHTGELTDSSFKHIISFFNEGDCLVLNNTRVLPARLFGTKEDTGAKVELLLLKQETGDKWETLAKPAKRVKKGTVVTFGDGRLKAICTEELEHGGRKMEFQYDGIFYEVLESLGEMPLPPYIKEQLDDKERYQTVYSKEIGSAAAPTAGLHFTEEILQQLKDKGVQIEFITLHVGLGTFRPVSADEVEEHNMHAEFYQMSEETAAALNKVRENGGRIISVGTTSTRTLETIAGEHDGQFKASSGWTSIFIYPGYEFKAIDGMITNFHLPKSSLIMLVSALAGRENILRAYNHAVEEEYRFFSFGDAMLII,soluble
12,MGSDKIHHHHHHMSEEAFDAIIVGAGLAGCVAAYVLAKEGADVLVIERGNYAGSKNMTGGRLYAHSLERIIPGFAKEAPIERKVTKEKVTFLTDDTGVTLDYHNGRDQSPLQESYTLLRGEFDQWLMGKAEEVGAQFITGIRVDEILTQDGKVIGVKADGDELTAKAVILAEGVNPILGEQLGMVKPKVSADAMAVGAKELIELPESVIKDRFNLKDDEGAAWLFAGSPSNGLMGGGFIYTNRNSISLGIVCGLHGIGESDKSVPQMLEDFKNHSLIKPLIEGGKLLEYSGHVVPEAGLNMVPKLVDHGVLITGDAAGFCLNVGYTVRGMDLAIASGEAAAKAVLAARAQQDFSAQGLSSYQSLLEESFLMKDMKLYKQLPAFMETPRIFNQYPKMVADIMHEMFIIDGTPAQPLRKTLLKHCKEVGFMNLIKDGYKGVTSI,not soluble
13,MVKEPGGKHVLCVGAAVLDTLFRVADMPKGEGKVLPYEVLQIAEGMASSAAYAVHRMGGRASLWGAVGDDETGTRILRDLSESGIDTSGMTVAPGARSALSTIIIDNRGERLIVPFYDHRLHEKKRACTPEDIALFDAVLVDVRWPELALDVLTVARALGKPAILDGDVAPVETLEGLAPAATHIVFSEPAATRLTGLETVKDMLPVLHARYPQTFIAVTAGPAGCWWTEADDPTVHFQTTMQVEAVDTLAAGDIFHGTFALAMAEGMQSRAAVRLSSVAAALKCTVFGGRIGAPTREETEEAMRQWLERESEPALRAS,soluble
14,MTRPDNEPARLRSVAENLAAEAAAFVRGRRAEVFGISRAGDGDGAVRAKSSPTDPVTVVDTDTERLLRDRLAQLRPGDPILGEEGGGPADVTATPSDRVTWVLDPIDGTVNFVYGIPAYAVSIGAQVGGITVAGAVADVAARTVYSAATGLGAHLTDERGRHVLRCTGVDELSMALLGTGFGYSVRCREKQAELLAHVVPLVRDVRRIGSAALDLCMVAAGRLDAYYEHGVQVWDCAAGALIAAEAGARVLLSTPRAGGAGLVVVAAAPGIADELLAALQRFNGLEPIPDALEHHHHHH,soluble
15,MRVIVTEYQPAWVEQFEEEAQALKQILKENCLKVEHIGSTSVPNLAAKPIIDFLVIVEEIEKVDLLQWEFERIGYEYMGEFGLSGRRYLRKGPIKRTHHVHIYQFDNTQEILRHLAFRNYLRENPAIATTYGTLKKQLAQAHPDSIDKYMDGKDAFIKKIEKEALKKYWE,soluble
